Data from paper PMC6880876.

Molecular target: end-binding protein 3 (EB3), full-length, recombinant (UniProt Q9UPY8)
Assay: ELISA

Chain of UniProt Q9UPY8 (Q9UPY8 whole entry): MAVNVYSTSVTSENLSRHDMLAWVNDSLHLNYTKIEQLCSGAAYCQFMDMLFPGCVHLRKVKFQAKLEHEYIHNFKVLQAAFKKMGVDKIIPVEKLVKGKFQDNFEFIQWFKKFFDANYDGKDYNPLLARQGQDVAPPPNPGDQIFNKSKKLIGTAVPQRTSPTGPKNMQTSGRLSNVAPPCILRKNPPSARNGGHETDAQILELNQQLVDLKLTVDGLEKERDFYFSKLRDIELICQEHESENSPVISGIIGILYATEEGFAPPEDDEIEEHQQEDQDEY

- Kd: 0.022 µM
Substance: full-length WT tau (0N4R) (from UniProt P10636-6 1-383) (natural protein)
